According to US20060051344A1:

Key:
[1] = molecular target: monoclonal antibody AUII103-5-41a; assay: competitive EIA: unlabelled peptide displaces biotinylated goby urotensin II from captured antibody
[2] = molecular target: monoclonal antibody AUII5-6-10a; assay: as above
[3] = molecular target: these two hybridoma culture supernatants; assay: competitive EIA against biotinylated goby urotensin II
[4] = molecular target: monoclonal antibody AUII103-5-41a; assay: competitive EIA; ratio of the antigen levels giving (B/B0)=0.5 (0.68 nM / 17.4 nM)

IC50 [1]	IC50 [2]	IC50 [3]	human urotensin II level at (B/B0)=0.9 [3]	ratio of reactivity with human urotensin II to reactivity with porcine urotensin II-1 [4]	Binder
17.4 nM	–	–	–	–	GPTSECFWKYCV [porcine urotensin II-1]
0.68 nM	1.2 nM	0.5 to 2 nM	0.2 nM	0.04 time	ETPDCFWKYCV [human urotensin II]
